The subject of one assay is CFPAC-1 Pancreatic. In words: Flow cytometry tumor cell binding. Format: cell-based, human. The procedure:
(§1) See International Patent Application No. PCT/US2011/41502.
(§2) FACs data showing NEO-101 antibody binding to colon cancer and pancreatic cancer cell lines. Cells were washed and suspended in either 2 μg/ml NEO-101-FITC or isotype control antibody-FITC for 1 hour, washed and then subjected to FACS analysis. Experiments with all cell lines were repeated at least three times. […] DAPI was used to stain the nucleus. […] The staining pattern of these pancreatic and colorectal tumor cells was predominantly membrane-associated, consistent with the expression profile of MUC5AC.
Background: A flow cytometer gives signals particle by particle.

A further assay deals with Colo-205 Colorectal. In words: Flow cytometry tumor cell binding. The format is cell-based, human. The procedure:
as §1, §2

In another assay the test system is LS174T Colorectal. Briefly: Flow cytometry tumor cell binding. The format is cell-based, human. As to the method: as §1, §2
For a further assay, the system named is SW480 Colorectal. Briefly: Flow cytometry tumor cell binding. Format: cell-based, human. As to the method:
as §1, §2

The next assay deals with T1, MUC5AC long construct (Homo sapiens, UniProt P98088, DEL3501-3501/G3481S/I3234V).
T1 construct: expressed in transfected cells; host or cells: CHO cells, transient/clonal plasmid transfection
T1 sequence (P98088 with tags, fused parts or gaps I3234V/G3481S/DEL3501-3501): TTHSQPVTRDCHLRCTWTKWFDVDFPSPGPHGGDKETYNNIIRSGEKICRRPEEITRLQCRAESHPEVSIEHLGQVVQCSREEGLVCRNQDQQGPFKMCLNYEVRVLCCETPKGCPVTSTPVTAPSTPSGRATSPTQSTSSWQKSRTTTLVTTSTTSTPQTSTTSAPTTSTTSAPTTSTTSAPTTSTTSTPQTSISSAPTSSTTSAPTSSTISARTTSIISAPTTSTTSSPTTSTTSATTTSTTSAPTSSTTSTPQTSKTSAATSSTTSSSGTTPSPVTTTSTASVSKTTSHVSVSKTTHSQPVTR
In words: Immunofluorescence of transfected CHO cells. The format is cell-based. As to conditions: different plasmid clones of the MUC5AC long construct. From the text: (§3) An exemplary amino acid sequence of MUC5AC is presented in SEQ ID NO: 36 with an exemplary nucleic acid sequence encoding MUC5AC presented in SEQ ID NO: 37. Therefore, a recombinant expression plasmid was designed and constructed that encoded residues upstream of tandem repeat units and two tandem repeat units (“MUC5AC-long” SEQ ID NO: 38 with the corresponding nucleic acid sequence of SEQ ID NO: 39). The MUC5AC long peptide corresponds to amino acid residues 2636 to 2942 of the MUC5AC protein (SEQ ID NO: 36). A second expression plasmid was designed and constructed that encoded primarily a short domain which connects to the central repetitive region and only a portion of the tandem repeat residues (“MUC5AC-short” SEQ ID NO: 40 with the nucleic acid encoding it in SEQ ID NO: 41). The MUC5AC short peptide corresponds to amino acid residues 2636 to 2763 of the MUC5AC protein (SEQ ID NO: 36). These smaller fragments of the large MUC5AC molecule were predicted to comprise NEO-101 antibody binding regions that contain the NPC-1 epitope(s).
(§4) The DNA sequences that contained NEO-101 antibody binding regions, based on the amino acid sequence, were back-translated to nucleic acid sequence and the DNAs were synthesized by methods well-known in the art. […]

In a further assay the target is T2, MUC5AC short construct (Homo sapiens, UniProt P98088, I3234V).
T2 construct: expressed in transfected cells; host or cells: CHO cells, transient/clonal plasmid transfection
T2 sequence (P98088 3212-3339 I3234V): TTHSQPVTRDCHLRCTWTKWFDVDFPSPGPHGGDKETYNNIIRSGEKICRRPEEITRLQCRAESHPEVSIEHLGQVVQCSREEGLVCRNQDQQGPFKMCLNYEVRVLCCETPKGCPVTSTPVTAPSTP
In words: Immunofluorescence of transfected CHO cells. Format: cell-based. As to conditions: different plasmid clones of the MUC5AC short construct.
Source text: as §3, §4

Assay [1] relates to human AsPC-1 pancreas tumor. In words: AsPC-1 pancreas tumor xenograft model. As to conditions: 200 μg ip. The format is in vivo, nude mice. The procedure: The NEO-101 antibody was tested for anti-tumor activity using the human AsPC-1 pancreas tumor xenograft model in nude mice. In this activity model, mice were implanted with human AsPC-1 tumor cells and allowed to establish to approximately 20-50 mm^3, measurable with a caliper in approximately 4-6 days. The treatment regimen included intraperitoneal injection of 200 μg of research-grade NEO-101 or a negative control human IgG (Pierce), followed on the next day with an intraperitoneal injection of IL-2-activated normal human PBMCs (approximately 2×10^7 per mouse per injection). Two cycles of treatment were administered such that antibody injections occurred on days 5 and 8, and PBMC injections occurred on days 6 and 9 in this study. Throughout the study, the tumor growth was monitored twice weekly by measurement with a caliper. Tumor volume was calculated using the equation: […], in units of cubic millimeters. If a tumor reached approximately 800 mm^3, or became ulcerated or necrotic, the mouse was humanely sacrificed. The study was terminated on study day 35.
This anti-tumor activity study was repeated in a separate study using the same AsPC-1 pancreas tumor model and the 200 μg dose of NEO-101 antibody. However, in the second study, four cycles of treatment were administered instead of two cycles. […]

B1: NEO-101: Chimeric NEO-101 antibody, engineered in CHO-DG44 production cell clone 4B7; targets a variant of MUC5AC (protein)
light: QVVLTQSPVIMSASPGEKVTMTCSASSSISYMYWYQQKPGTSPKRWIYDTSKLASGVPARFSGSGSGTSYSLTISNMEAGDAATYYCHQRDSYPWTFGGGTNLEIK
heavy: QVQLKESGPDLVAPSQSLSITCTVSGFSLSKFGVNWVRQPPGKGLEWLGVIWGDGSTSYNSGLISRLSISKENSKSQVFLKLNSLQADDTATYYCVKPGGDYWGHGTSVTVSS
For the molecule B1, the “% Cells Stained” value with CFPAC-1 Pancreatic (CFPAC-1) was 52.56%; in the assay on Colo-205 Colorectal it was 94.67%; with LS174T Colorectal (LS174T), 89.72%; with SW480 Colorectal it was 58.98%. The mfi was found to be 59 with CFPAC-1 Pancreatic (CFPAC-1), 175 with Colo-205 Colorectal, 103 in the assay with LS174T Colorectal (LS174T) and 118 in the assay with SW480 Colorectal. Moreover, the Percent positive in the assay with CFPAC-1 Pancreatic (CFPAC, 2 μg/ml FITC antibody, FACS) was determined as 52.56%; in the assay on Colo-205 Colorectal (2 μg/ml FITC antibody, FACS), 94.67%; with LS174T Colorectal (LS174, 2 μg/ml FITC antibody, FACS), 89.72%; in the assay on SW480 Colorectal (2 μg/ml FITC antibody, FACS), 58.98%. The “CHO cells bound by antibody” value with MUC5AC long construct is 76%-88%; with MUC5AC short construct, 11%-80%. The “tumor growth versus human IgG control” value in assay [1] (four cycles, with PBMCs, significant from Day 18 (P=0.0044)) was “very similar growth inhibition”. Further, in assay [1] (two cycles, with IL-2-activated human PBMCs, significant from day 13 (P=0.0072)), the “tumor growth versus control groups” value was “Tumor growth inhibition was observed”.
